The values below come from US20260102420A1, “CANCER IMMUNOTHERAPY” (Hoffmann-La Roche Inc., priority 2022, published 2026).

Like-named read-outs stand apart in the source and are kept apart here.

The test system of one assay is CD8+ and CD4+ T cells. Nature of the assay: Intra-tumor T cell activation marker analysis by flow cytometry. Type of assay: in vivo, mice. Conditions: UAP1 KO groups, not in wt; 32 days post tumor injection; FIGS. 12A and 12B. How it is done: FIGS. 12A and 12B. 32 days post tumor injection, scouts were taken for intra-tumor T cell activation marker analysis. […] Data were obtained using flow cytometry. P values were calculated using two-tailed paired Student t-test. *P<0.05, **P<0.01
To confirm that the observed effect was due to the involvement of the endogenous mouse immune system, the experiment was repeated in NSG immunodeficient mice.

Assay [1] deals with CEA expressing metastatic CRCs. As to conditions: cited from earlier work.
Another assay relates to A549. The assay can be described thus: T cell-mediated killing assay, A549 wt vs UAP1 KO. As to conditions: FIG. 3C. Type of assay: cell-based, human. How it is done:
FIGS. 3A, 3B, 3C and 3D. Tumor intrinsic UAP1 regulates TCB-mediated cytotoxicity in vitro. T cell-mediated killing assay. UAP1 knockout cells and wt cells for FIG. 3A MKN45 with CEA-TCB, FIG. 3B MKN45 with EpCAM-TCB, FIG. 3C A549 with CEA-TCB and FIG. 3D B16F10 with Tyrp1-TCB were used and measured was the cell count of tumor cells over time in an incucyte. Graphs show mean±SEM. P values were calculated using two-tailed paired Student t-test. *P<0.05, **P<0.01
25000 MKN45-nuclight red (NLR), 20000 A549-hCEA and 10000 B16F10-NLR tumor cells (wt or UAP1 ko) were seeded in one well of a 96 well-plate. Afterwards TCBs or siinfekl were given at the indicated concentrations. […] For MKN45-NLR and B16F10-NLR, T cell-mediated killing was calculated based on the red fluorescent signal coming from the tumor cells. All values were first transformed to fold-change to time 0, and % specific lysis was calculated as follows: […]
For A549-hCEA, the cytotox-green reagent (sartorius) was added to the co-culture at 1:16000 dilution and T-cell mediated killing was assesses by measuring green fluorescent count in each well. All values were first transformed to fold-change to time 0, and then % normalized green signal was calculated as follows: [(Green fluorescent counts TCB/Green fluorescent counts control TCB)×100]. […] T-cell mediated killing was measured as above. […]

The next assay concerns MKN45 tumors. Nature of the assay: In vivo cancer model, MKN45 wt or UAP1 KO tumors in stem cell humanized NSG mice. Here is the method: FIGS. 8A, 8B, 8C, 8D, and 8E. Deletion of UAP1 sensitizes MKN45 tumors to immunotherapy. FIG. 8A: Tumor growth curves of MKN45 wt and UAP1 KO cell in stem cell humanized NSG mice (huNSG). Animals were dosed either with vehicle control, 0.2 mg/kg or 0.4 mg/kg CEA-TCB. Time point of first dosing at day 15 as indicated. Tumor volume was measured with a caliper. Mice per group (n=10). FIG. 8B: Tumor volume ratio of TCB therapy groups and vehicle control groups for every time point after the first TCB treatment. FIG. 8C: Tumor growth curves for individual mice. Two-way-ANOVA statistical analysis was done with Graphpad Prism software. FIG. 8D and FIG. 8E show the measured individual tumor volumes over time within the treatment groups corresponding to the average values shown in FIGS. 8A and FIG. 8B.
Immunocompetent C57BL/6J and NOD.Cg-PrkdcscidIL-2rgtm1Wjl/SzJ (NSG) mice were obtained from Charles River Laboratories. All animal studies were performed under local Swiss government ethical approval and regulations (license ZH183/2020) according to international FELASA and national GV-Solas and TierSchG guidelines, respectively. […]
B16F10 and MKN45 wtl and UAP1 KO cells were trypsinized, washed and resuspended using a 1:1 mixture of tissue culture medium and Matrigel in a total volume of 100 μl. […] Tumors were measured twice weekly and tumor volume (mm3) was determined using the formula 0.5×length×width2. […]

B1: cibisatamab (antibody, chains of the INN, looked up, V domains shown)
VH: QVQLVQSGAEVKKPGASVKVSCKASGYTFTEFGMNWVRQAPGQGLEWMGWINTKTGEATYVEEFKGRVTFTTDTSTSTAYMELRSLRSDDTAVYYCARWDFAYYVEAMDYWGQGTTVTVSS
VL: DIQMTQSPSSLSASVGDRVTITCKASAAVGTYVAWYQQKPGKAPKLLIYSASYRKRGVPSRFSGSGSGTDFTLTISSLQPEDFATYYCHQYYTYPLFTFGQGTKLEIK
VH2: QVQLVQSGAEVKKPGASVKVSCKASGYTFTEFGMNWVRQAPGQGLEWMGWINTKTGEATYVEEFKGRVTFTTDTSTSTAYMELRSLRSDDTAVYYCARWDFAYYVEAMDYWGQGTTVTVSS
VL2: QAVVTQEPSLTVSPGGTVTLTCGSSTGAVTTSNYANWVQEKPGQAFRGLIGGTNKRAPGTPARFSGSLLGGKAALTLSGAQPEDEAEYYCALWYSNLWVFGGGTKLTVL
B1: the “expression of the activation/exhaustion marker (Tim3) in intra-tumor T cells” value in the assay with CD8+ and CD4+ T cells is reported as “increased expression”. In addition, the “patients with radiological shrinkage” value in assay [1] (in combination with PD-L1-inhibiting antibodies, 5/10 patients) is reported as 50%; in assay [1] (monotherapy, 4/36 patients, failed at least two prior chemotherapy regimens), 11%. The “T cell killing of UAP1 KO cells compared to wt cells” value in the assay with A549 is listed as “more efficiently killed”. For the same molecule, the tumor response result with MKN45 tumors (combination of UAP1 gene knockout and CEA TCB) is listed as “complete tumor regression”; with MKN45 tumors (mice treated with CEA-TCB only), “incomplete tumor growth control”.
